The supplement of paper PMC7125110
± gives the standard error. For some of these results: Fewer inactive variants are shown than the library holds.

B1: glmS ribozyme (parent)
chain: AUAAAAGCGCCAGAACUACAGAAAUGUAGUUGACGAGGAGGAGGUUUAUCGAAUUUUCGGCGGAUGCCUCCAAA

What was measured:
Details in all cases: with glucosamine-6-phosphate
[1] = variants of: B1; assay: kcat; higher = faster cleavage; RNA array
Outline: (§1)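 Sequenced MiSeq chips were the platform: E. coli RNA polymerase transcribed barcoded ribozyme variants on them in situ, and a hybridised Cy3 probe tracked these at 37 °C. After glucosamine-6-phosphate (40 μM to 10 mM) in HEPES/KCl/Mg(OAc)2 buffer was flowed in, tiles were imaged over ~14 h. Signals normalised to baseline and to non-cleaving reference variants were reduced to per-tile medians and fit to one- or two-exponential decays to obtain kobs. kcat and KM were derived through weighted Michaelis–Menten fits across concentrations.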

[2] = variants of: B1; assay: self-cleavage kobs at 40 uM GlcN6P; higher = faster cleavage; RNA array
Outline: as §1

[3] = variants of: B1; assay: self-cleavage kobs at 160 uM GlcN6P; higher = faster cleavage; RNA array
Outline: as §1

[4] = variants of: B1; assay: self-cleavage kobs at 640 uM GlcN6P; higher = faster cleavage; RNA array
Outline: as §1

[5] = variants of: B1; assay: self-cleavage kobs at 2500 uM GlcN6P; higher = faster cleavage; RNA array
Outline: as §1

[6] = variants of: B1; assay: self-cleavage kobs at 10000 uM GlcN6P; higher = faster cleavage; RNA array
Outline: as §1

[7] = variants of: B1; assay: KM; higher = weaker cofactor use; RNA array
Outline: as §1

Variant | kcat [1] [s⁻¹] | self-cleavage kobs at 40 uM GlcN6P [2] [s⁻¹] | self-cleavage kobs at 160 uM GlcN6P [3] [s⁻¹] | self-cleavage kobs at 640 uM GlcN6P [4] [s⁻¹] | self-cleavage kobs at 2500 uM GlcN6P [5] [s⁻¹] | self-cleavage kobs at 10000 uM GlcN6P [6] [s⁻¹] | KM [7] [µM]
U30G A39U | 0.00794 ± 0.0035 | 0.000127 ± 2.3e-05 | 0.000455 ± 8.4e-05 | 0.000857 ± 0.00016 | 0.00224 ± 0.00096 | 0.00645 ± 0.00095 | –
G29C C58A | 0.000126 ± 8e-06 | – | – | 3.49e-05 ± 1.2e-05 | 8.42e-05 ± 1.4e-05 | 0.000108 ± 1.5e-05 | 1420 ± 280
U30A U55C | 0.0088 ± 0.0027 | 0.000194 ± 3.2e-05 | 0.000315 ± 5.6e-05 | 0.00129 ± 0.00024 | 0.00471 ± 0.0012 | 0.00647 ± 0.00073 | 3470 ± 1500
G29U U54A U65A | 0.000347 ± 8.3e-05 | – | 8.02e-05 ± 2.9e-05 | 0.000149 ± 2.1e-05 | 0.000241 ± 3.4e-05 | 0.000456 ± 0.00011 | –
G29U G66U | 0.000182 ± 1.7e-05 | – | – | 5.65e-05 ± 1.1e-05 | 0.000151 ± 2.6e-05 | 0.000156 ± 1.6e-05 | 1300 ± 360
G29U G66A | 0.0034 ± 0.00083 | 8.79e-05 ± 1.5e-05 | 0.000716 ± 0.0002 | 0.000732 ± 0.00016 | 0.00168 ± 0.00038 | 0.00316 ± 0.00039 | 1710 ± 700
G29U A42G | 0.00693 ± 0.0016 | 0.000272 ± 0.00011 | 0.000486 ± 0.00015 | 0.00202 ± 0.00037 | – | 0.00626 ± 0.0011 | 1770 ± 660
U30A U47G | 0.000918 ± 0.00028 | 7.81e-05 ± 2.4e-05 | – | 0.000406 ± 8.6e-05 | 0.000481 ± 0.00024 | 0.00109 ± 0.00021 | –
U30A C67U | 0.00166 ± 0.00065 | 5.62e-05 ± 1.2e-05 | 0.000105 ± 2.1e-05 | 0.00036 ± 6.4e-05 | 0.00118 ± 0.00017 | 0.00106 ± 0.00034 | –
U30A C67G | 0.000166 ± 1.4e-05 | – | – | 5.03e-05 ± 5.9e-06 | 9.16e-05 ± 8.4e-06 | 0.00015 ± 1.3e-05 | 1650 ± 330
U30A G59A | 3.04e-05 ± 2.1e-06 | < 1e-05 | – | – | – | 2.5e-05 ± 1.2e-05 | 2080 ± 490
U30C U46C C50U U69C | 1.66e-05 ± 5e-06 | – | – | – | – | – | –
U30G U69G | 3.4e-05 ± 1.2e-05 | – | 5.83e-05 ± 1.7e-05 | 6.34e-05 ± 1.3e-05 | 3.55e-05 ± 8.8e-06 | – | –
U31A G40A | 0.00231 ± 0.00021 | 7.32e-05 ± 1.2e-05 | 0.000266 ± 0.00011 | 0.000717 ± 0.00016 | 0.00206 ± 0.00066 | 0.00201 ± 0.00033 | 1250 ± 170
G29U U30A | 0.000337 ± 3.2e-05 | – | – | 8.73e-05 ± 1.5e-05 | 0.000198 ± 3.2e-05 | 0.000278 ± 4e-05 | 1900 ± 380
G29U U30G | 0.00393 ± 0.0013 | 9.59e-05 ± 1.7e-05 | 0.000286 ± 5.6e-05 | 0.00131 ± 0.00023 | 0.00182 ± 0.00035 | 0.00493 ± 0.001 | 1780 ± 820
U31C C34G | 1.37e-05 ± 8.9e-07 | – | – | – | – | – | 1370 ± 240
U30C C58A | 2.21e-05 ± 6e-06 | – | – | – | 2.92e-05 ± 1.1e-05 | – | –
U31C C58U | 2.26e-05 ± 7.2e-06 | – | – | – | 2.64e-05 ± 1.3e-05 | – | –
U31A G41C | 0.000118 ± 1.6e-05 | – | – | 6.84e-05 ± 1.6e-05 | 9.73e-05 ± 2.2e-05 | – | 501 ± 200
U30A G37A | 0.000308 ± 0.00011 | – | 3.75e-05 ± 1.2e-05 | 6.25e-05 ± 1.2e-05 | 0.000141 ± 2.9e-05 | 0.000302 ± 7.7e-05 | –
G29U C58A | 0.000289 ± 9.9e-05 | – | 3.39e-05 ± 1.2e-05 | 5.13e-05 ± 1e-05 | 0.000103 ± 1e-05 | 0.000231 ± 3e-05 | –
G29U C58G | 8.52e-05 ± 7.7e-06 | – | – | 3.31e-05 ± 1.6e-05 | 8.3e-05 ± 1.9e-05 | 7.67e-05 ± 9.9e-06 | 752 ± 370
G29C A52G | 0.000125 ± 7.9e-06 | – | – | 2.88e-05 ± 7.9e-06 | 7.18e-05 ± 1e-05 | 0.000104 ± 1e-05 | 1940 ± 350
U30C C67G | 1.07e-05 ± 2.3e-06 | < 1e-05 | – | – | – | – | –
U30C C67U | 0.0001 ± 1.3e-05 | – | 3.33e-05 ± 1.3e-05 | 3.56e-05 ± 7.9e-06 | 8.48e-05 ± 1.8e-05 | 9.05e-05 ± 1e-05 | 927 ± 390
U30C A42G | 0.000456 ± 7.6e-05 | – | 7.93e-05 ± 2.8e-05 | 0.00012 ± 3.3e-05 | 0.000368 ± 9.6e-05 | 0.0004 ± 5.9e-05 | 1310 ± 520
U30G C70G | 0.000136 ± 7.2e-06 | – | – | 9.18e-05 ± 2.2e-05 | 0.000124 ± 2.3e-05 | 0.000127 ± 1.4e-05 | 439 ± 110
U31A A52G | 0.00103 ± 0.00022 | – | 4.63e-05 ± 1.3e-05 | 0.000142 ± 2.3e-05 | 0.000305 ± 4.3e-05 | 0.000752 ± 7.9e-05 | 4620 ± 1600
U30C C70G | 5.67e-05 ± 5.3e-06 | – | 5.73e-05 ± 1.4e-05 | 6.49e-05 ± 1.1e-05 | 4.88e-05 ± 9e-06 | 5.52e-05 ± 1e-05 | –
